{
  "source": "patent US20130244255A1",
  "about": "“ANTIBODIES DIRECTED TO GPNMB AND USES THEREOF” (priority 2006, published 2013)",
  "key": {"[1]": {"system": "SK-Mel-2 cells", "experiment": "Clonogenic assay, SK-Mel-2 cells after GPNMB siRNA", "assay_type": "cell-based, human", "procedure": "(§1) Cells were plated in 96-well plates and allowed to recover overnight. […] The cells were then transferred into 6-well plates and allowed to form colonies. Colonies were stained with Giemsa stain (Sigma) and counted. The surviving cell fractions were calculated based upon the ratio of the treated sample and the untreated control. The results were expressed as a percentage of control using GraphPad Prism Version 4 software.\nThe amount of GPNMB expression was reduced for at least 7 days after transfection."}, "[2]": {"system": "HEK293 cells", "experiment": "Clonogenic assay, HEK293 cells transfected with GPNMB or empty vector", "assay_type": "cell-based, human", "conditions": "96 hours treatment", "procedure": "as §1\nImmunoblot (FIG. 9A) and FACS (FIG. 9B) analyses confirmed that GPNMB was expressed in GPNMB/plasmid transfected cells."}, "[3]": {"target": "T1, GPNMB (Homo sapiens, UniProt Q14956)", "T1 construct": "we cloned the human CG56972 extracellular domain (ECD; aa 23-480); made in house; host or cells: HEK 293 cells", "T1 sequence (Q14956 23-492)": "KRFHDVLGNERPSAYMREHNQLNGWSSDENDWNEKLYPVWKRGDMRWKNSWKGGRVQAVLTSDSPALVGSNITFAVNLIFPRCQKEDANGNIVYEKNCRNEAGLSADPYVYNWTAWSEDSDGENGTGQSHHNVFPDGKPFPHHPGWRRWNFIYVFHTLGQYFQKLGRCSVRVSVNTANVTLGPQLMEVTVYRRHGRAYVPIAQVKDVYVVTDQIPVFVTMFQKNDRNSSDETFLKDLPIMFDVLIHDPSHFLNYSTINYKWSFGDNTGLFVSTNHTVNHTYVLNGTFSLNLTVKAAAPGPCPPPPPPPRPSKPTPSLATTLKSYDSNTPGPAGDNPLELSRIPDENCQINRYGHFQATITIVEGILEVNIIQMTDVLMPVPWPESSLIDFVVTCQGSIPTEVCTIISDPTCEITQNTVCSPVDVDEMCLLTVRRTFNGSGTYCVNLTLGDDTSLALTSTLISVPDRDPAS", "experiment": "Binning of antibodies (Luminex competitive binding)", "procedure": "Certain antibodies, described herein were binned in accordance with the protocol described in U.S. Patent Application Publication No. 20030157730. M×hIgG conjugated beads are prepared for coupling to primary antibody. The volume of supernatant needed is calculated using the following formula: (n+10)×50 μL (where n=total number of samples on plate). Where the concentration is known, 0.5 μg/mL is used. Bead stock is gently vortexed, then diluted in supernatant to a concentration of 2500 of each bead per well or 0.5×10^5/mL and incubated on a shaker in the dark at RT overnight, or 2 hours if at a known concentration of 0.5 μg/mL. Following aspiration, 50 μL of each bead is added to each well of filter plate, then washed once by adding 100 μL/well wash buffer and aspirating. Antigen and controls are added to filter plate 50 μL/well then covered and allowed to incubate in the dark for 1 hour on shaker. Following a wash step, a secondary unknown antibody is added at 50 μL/well using the same dilution (or concentration if known) as is used for the primary antibody. The plates are then incubated in the dark for 2 hours at RT on shaker followed by a wash step. Next, 50 μL/well biotinylated m×hIgG diluted 1:500 is added and allowed to incubate in the dark for 1 hour on shaker at RT. Following a wash step, 50 μL/well Streptavidin-PE is added at 1:1000 and allowed to incubate in the dark for 15 minutes on shaker at RT. Following a wash step, each well is resuspended in 80 μL blocking buffer and read using Luminex. […] Competitive binding by antibodies from […] supports antibody specificity for similar or adjacent epitopes. Non competitive binding supports antibody specificity for unique epitopes.\nThree bins were created to further test the binding of six anti-GPNMB antibodies. Bin 1 included GPNMB antibodies (1.2.1), (1.10.1), and (2.22.1). Bin 2 included GPNMB antibodies (2.3.1) and (1.15.1), and Bin 3 included GPNMB antibody (2.10.1). The results of the binning assays are provided below in Tables 8 and 9."}, "[4]": {"system": "Melanoma cell lines", "experiment": "Clonogenic assay with 1.15.1-AE, melanoma panel", "assay_type": "cell-based, human", "procedure": "Melanoma cell lines were plated onto flat bottom 96-well tissue culture plates (Becton Dickinson, Franklin Lakes, N.J., USA). On day 2 or when cells reach ˜25% confluency, various concentrations of unconjugated and Auristatin E-conjugated 1.15.1 were added to cells. MAb 2.6.2-AE was also used as a conjugated isotype control in this study. On day 5, the cells were trypsinized, transferred to 6-well tissue culture plates and incubated at 37° C. Plates were examined daily. On days 8-10, all plates were Giemsa stained and colonies on the plates were counted."}, "[5]": {"system": "TK10", "experiment": "Anti-GPNMB antibody mediated indirect cell killing (saporin secondary conjugate, colony count)", "assay_type": "cell-based", "conditions": "antibody at 50 ng/mL with goat anti-human IgG-saporin 100 ng/well", "procedure": "UACC-62, a GPNMB antigen expressing cell line, and TK10, a non-expressing cell line were plated onto flat bottom 96-well tissue culture plates (Becton Dickinson, Franklin Lakes, N.J., USA) at a density of 3000 cells per well. Once the cells reached ˜25% confluency, 100 ng/well of secondary antibody-toxin conjugate (goat anti-human IgG-saporin; Advanced Targeting Systems, San Diego, USA, HUM-ZAP; cat #IT-22) was added. […] An anti-EGFR monoclonal antibody (MS-269-PABX, NeoMarkers, Fremont, Calif., USA) was used as a positive primary antibody control. Chemotherapy reagent 5-FU at 600 uM was used as a positive reagent control. On day 5, the cells were trypsinized, transferred to 6-well tissue culture plates and incubated at 37° C. Plates were examined daily and between 8-10 days, all plates were Giemsa stained and colonies were counted."}, "[6]": {"system": "Lymphoma or leukemia cell lines", "experiment": "Clonogenic assay (methylcellulose) with 1.15.1-AE, lymphoma and leukemia panel", "assay_type": "cell-based, human", "procedure": "Lymphoma or leukemia cell lines were mixed with methylcellulose base media (R&D Systems, USA) and in various concentrations of unconjugated and Auristatin E-conjugated 1.15.1 antibody before plating onto 6-well tissue culture plates (Becton Dickinson, Franklin Lakes, N.J., USA). […] Plates were incubated at 37° C. and examined daily. On days 14-18, colonies on the plates were counted."}},
  "data": [
    {"substance": "CR011-vcMMAE: CR011 conjugated to monomethyl auristatin E through a protease cleavable valine-citrulline linker; approx. 4 drugs per antibody", "values": [
      {"measurement": "sensitivity of SK-Mel-2 cells to growth-inhibitory activity following siRNA-mediated GPNMB knockdown", "setting": "[1]", "result": "less sensitive"},
      {"measurement": "sensitivity of GPNMB-expressing HEK293 cells vs control cells to growth-inhibition", "setting": "[2]", "result": "more sensitive"}
    ]},
    {"substance": "CR011: fully human monoclonal antibody that specifically binds to GPNMB; VH SEQ ID NO: 20, VL SEQ ID NO: 29", "values": [
      {"measurement": "bin", "setting": "[3]; Table 8", "result": "VIII"},
      {"measurement": "binning signal against antibody 1.1", "setting": "[3]; Table 8", "result": 91},
      {"measurement": "binning signal against antibody 1.11", "setting": "[3]; Table 8", "result": 10},
      {"measurement": "binning signal against antibody 1.12", "setting": "[3]; Table 8", "result": 15},
      {"measurement": "binning signal against antibody 1.13", "setting": "[3]; Table 8", "result": 13},
      {"measurement": "binning signal against antibody 1.15", "setting": "[3]; Table 8", "result": 0},
      {"measurement": "binning signal against antibody 1.2", "setting": "[3]; Table 8", "result": 79},
      {"measurement": "binning signal against antibody 1.3", "setting": "[3]; Table 8", "result": 71},
      {"measurement": "binning signal against antibody 1.7", "setting": "[3]; Table 8", "result": 21},
      {"measurement": "binning signal against antibody 1.8", "setting": "[3]; Table 8", "result": 8},
      {"measurement": "binning signal against antibody 1.9", "setting": "[3]; Table 8", "result": 12},
      {"measurement": "binning signal against antibody xV5", "setting": "[3]; Table 8", "result": 89},
      {"measurement": "binning signal against column antibody 1.5", "setting": "[3]; Table 8", "result": 15},
      {"measurement": "binning signal against antibody 1.1", "setting": "[3]; Table 9", "result": 127},
      {"measurement": "binning signal against antibody 1.11", "setting": "[3]; Table 9", "result": 19},
      {"measurement": "binning signal against antibody 1.12", "setting": "[3]; Table 9", "result": 21},
      {"measurement": "binning signal against antibody 1.13", "setting": "[3]; Table 9", "result": 5},
      {"measurement": "binning signal against antibody 1.15", "setting": "[3]; Table 9", "result": 0},
      {"measurement": "binning signal against antibody 1.2", "setting": "[3]; Table 9", "result": 90},
      {"measurement": "binning signal against antibody 1.3", "setting": "[3]; Table 9", "result": 51},
      {"measurement": "binning signal against antibody 1.7", "setting": "[3]; Table 9", "result": 17},
      {"measurement": "binning signal against antibody 1.8", "setting": "[3]; Table 9", "result": 12},
      {"measurement": "binning signal against antibody 1.9", "setting": "[3]; Table 9", "result": 19},
      {"measurement": "binning signal against antibody xV5", "setting": "[3]; Table 9", "result": 125},
      {"measurement": "binning signal against column antibody 1.5", "setting": "[3]; Table 9", "result": "−9"},
      {"measurement": "bin", "setting": "[3]; Table 9, Cut-off = 90", "result": "VIII"},
      {"measurement": "bin", "setting": "[3]; three bins of six anti-GPNMB antibodies", "result": "Bin 2"},
      {"measurement": "effect on growth of all the melanoma cell lines tested (in words)", "setting": "[4]", "result": "no effect on growth"},
      {"measurement": "cell death in GPNMB negative TK10 cells", "setting": "[5]", "result": "less than 24%"},
      {"measurement": "effect on growth of all antigen positive hematopoietic cell lines (in words)", "setting": "[6]", "result": "no effect on growth"}
    ]}
  ]
}
